Here are results for six substances from paper PMC3830444.

The target in one test is γT-thrombin (UniProt P00734).
Another test addresses activated protein C (UniProt P04070).
Test [1] addresses human α-thrombin (human) (UniProt P00734).
Test [2] concerns the target FPR-chloromethyl ketone-thrombin (active site-inhibited α-thrombin) (human) (UniProt P00734). In words: ELISA; HCII 1-75 immobilised on microtiter plates; α-thrombin or FPR-ck-thrombin incubated with or without competitor peptides or proteins; bound thrombin detected after washes with a horseradish peroxidase-conjugated sheep anti-human antibody (A490); one-site binding fit, IC50 = competitor concentration that reduces binding by 50%. Background: ELISA stands for enzyme-linked immunosorbent assay.

The target in test [3] is human α-thrombin (human) (UniProt P00734). The test is described as above.
Test [4] shares this target. This is another data set of the same source.
For test [5] the target is unchanged. As to the kind of experiment: ELISA.

Sequence of activated protein C (P04070 whole entry, looked up): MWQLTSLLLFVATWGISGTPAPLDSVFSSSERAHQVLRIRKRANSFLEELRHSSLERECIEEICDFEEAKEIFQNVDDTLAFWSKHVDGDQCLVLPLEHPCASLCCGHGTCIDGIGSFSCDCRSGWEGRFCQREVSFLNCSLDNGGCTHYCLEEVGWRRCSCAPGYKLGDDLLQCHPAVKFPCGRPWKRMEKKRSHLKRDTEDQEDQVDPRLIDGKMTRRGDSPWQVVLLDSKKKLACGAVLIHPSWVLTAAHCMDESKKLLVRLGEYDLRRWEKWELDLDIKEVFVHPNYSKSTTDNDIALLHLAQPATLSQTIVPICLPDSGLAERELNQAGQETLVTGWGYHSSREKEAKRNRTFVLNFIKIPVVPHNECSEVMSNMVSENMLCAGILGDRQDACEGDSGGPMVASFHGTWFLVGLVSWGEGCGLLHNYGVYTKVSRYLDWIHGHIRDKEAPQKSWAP

With “API M358R (alpha-1 proteinase inhibitor with the substitution of Met358 by Arg) (from UniProt P01009 25-418) (natural protein)”, the second order rate constant of inhibition (k2) of γT-thrombin with γT-thrombin worked out at 98300 M⁻¹ s⁻¹. In the test with activated protein C, the second order rate constant of inhibition (k2) of APC turned out to be 28300 M⁻¹ s⁻¹. Also, in the test with human α-thrombin (human) [1], the second order rate constant of inhibition (k2) of α-thrombin came out at 367000 M⁻¹ s⁻¹.
The substance “HAPI M358R (residues 1-75 of heparin cofactor II fused to API M358R) (from UniProt P01009 25-418)” showed a second order rate constant of inhibition (k2) of γT-thrombin with γT-thrombin of 567000 M⁻¹ s⁻¹. Further, the second order rate constant of inhibition (k2) of APC with activated protein C stood at 28300 M⁻¹ s⁻¹. Also, in the test with human α-thrombin (human) [1], the second order rate constant of inhibition (k2) of α-thrombin was 3.1e+06 M⁻¹ s⁻¹.
As a reminder, the IC50 is the point on the concentration scale where inhibition reaches its midpoint. A high value points to lower potency. As to “HAPI RCL5 (HAPI M358R with additional F352A/L353V/E354V/A355I/I356A/I460L substitutions) (from UniProt P01009 25-418)”, the IC50 in test [2] was 17 µM. In other words, the double-digit micromolar range.
As for “HCII 1-75 (recombinant protein of 84 amino acids: residues 1-75 of heparin cofactor II with an N-terminal nonapeptide tag) (domain or fragment)”, the values for the IC50 (in test [2]; with human α-thrombin (human) [3]) were 9 µM and 8 µM, respectively. The substance further registered a concentration required to double the Thrombin Clotting Time (TCT) of diluted citrated human plasma in the test with human α-thrombin (human) [4] of 12 µM.
Regarding “HV3API M358R (HV3 residues 54-66 fused through G6 to the N-terminus of API M358R) (from UniProt P01009 25-418)”, the second order rate constant of inhibition (k2) of APC with activated protein C turned out to be 31700 M⁻¹ s⁻¹.
With HV3_(54-66) synthetic peptide, in the test with human α-thrombin (human) [5], the IC50 was determined as 0.9 µM. This substance had a concentration required to double the Thrombin Clotting Time (TCT) of diluted citrated human plasma with human α-thrombin (human) [4] of 0.45 µM.
